Where “and” joins values, the source holds several entries; their conditions need not be identical. Identical values can stand only once.
Experiments:
A. suum = test: Assay for lytic activity against live A. suum; settings: for 12 hours Death / 12 hours Lysis / 24 hours Death / 24 hours Lysis: protein conc. 0.1 mg/ml
R. similis = test: Assay for lytic activity against R. similis (microtiter plates); type: in vivo
Experimental: The assays were performed in microtiter plates. Ten microliters of R. similissuspensions were placed in microtiter plate wells. Serially diluted SMP #1 (100U in 0.1 ml stock) was added to the wells. PBS was added to a series of wells containing R. similis as a control. The nematodes were stored at 20° C. and examined for lytic effects or death at 48 and 96 hours.

casein = test: Proteolytic activity of SMP #1 (casein digestion), pH optimum and activity with detergents/solvents; type: biochemical
Experimental: Proteolytic activity was determined by casein digestion (Kunitz 1947). Substrate consisting of 0.75 ml 1.0% (w/v) casein in 100 mM TRIS/HCL, 1 mM MgCl2 (pH 8) at 30° C. Protease samples (0.1 ml) were brought to 30° C., added to the substrate and incubated at 30° C. After 30 minutes, the reaction was quenched with 0.5ml 10% (w/v) trichloroacetic acid (TCA). After 15 minutes at 25° C., the quenched reaction mixture was centrifuged at 10 000 g for 10 minutes to pellet precipitated protein and the A280 of the supernatant was determined. One unit of proteolytic activity was defined as the amount of enzyme that produced an increase of absorbance at 280 nM of 0.1 under the conditions of the assay.
Several compounds were tested as to characterize the novel protein. Effect of protease inhibitors (30-120 μ/ml antipain dihydrochloride, 1-4 μ/ml aprotinin, 20-80 μg/ml bestatin, 25-50 μg/ml chymostatin, 5-20 μg/ml E-64, 10-60 mM EDTA, 1-74 μg/ml leupeptin, 500-2000 μg/ml Pefabloc SC, 1-4 μ/ml pepstatin, 165-660 μlg/ml phosphoramidon and 100-400 μg/ml PMSF), SDS (0.1%-1%), Tween-20 (0.1%-1%), Triton X-100 (0.1%-1%), ethanol (1%-5%), and 2-mercaptoethanol (0.1%-1%) were determined by addition to the standard reaction mixture. Residual proteolytic activity was determined after incubation at 25° C. for 30 minutes.

[1] = Native isoelectric focusing; type: physicochemical; settings: polypeptide produced by S. marcescens NRRL B-23112
Experimental: The isoelectric point (pI) of purified SMP#1 was determined using a vertical mini-gel system (Roberston et al. 1987) and 1.5 mm polyacrylamide gels consisting of 5% (w/v) 30:1 acrylamide/bisacrylamide, 10% (v/v) glycerol and 2% (w/v) pH 4-8 ampholytes. Electrode solutions were cooled to 4° C. prior to electrophoresis. The anode solution was 20 mM acetic acid and the cathode solution was 25 mM NaOH. Samples and protein standards (Sigma) were mixed with an equal volume of 50% (v/v) glycerol and 4%(w/v) ampholytes in the pH range of 4-8. Samples were prepared for isoelectric focusing by concentrating and desalting in a centriprep concentrator (Amicon) with a molecular mass exclusion limit of 10 000 Da. Electrophoresis was at 25° C. and 200 volts for 1.5 hours. The gels were fixed with 10% (w/v) trichloroacetic acid for 10 minutes with gentle agitation. Ampholytes were removed by shaking the gel for 2 hours in 1% (w/v) trichloroacetic acid. After rinsing with Milli-Q-water, the gels were stained with 0.25% (w/v) Coomassie blue R-250 in 45% (v/v) methanol and 10% (v/v) acetic acid for 10 minutes. The gels were destained in 45% (v/v) methanol and 10% (v/v) acetic acid until the background was clear.

B1: papain (protein, UniProt P00784 134-345, looked up)
Papain: IPEYVDWRQKGAVTPVKNQGSCGSCWAFSAVVTIEGIIKIRTGNLNEYSEQELLDCDRRSYGCNGGYPWSALQLVAQYGIHYRNTYPYEGVQRYCRSREKGPYAAKTDGVRQVQPYNEGALLYSIANQPVSVVLEAAGKDFQLYRGGIFVGPCGNKVDHAVAAVGYGPNYILIKNSWGTGWGENGYIRIKRGTGNSYGVCGLYTSSFYPVKN
A. suum; 2-mercaptoethanol 0
  12 hours Death: (+)
  12 hours Lysis: (+++)
  24 hours Death: (+)
  24 hours Lysis: (+++)

B2: SMP #1: serratia metalloprotease isolated from S. marcescens NRRL B-23112, amino acid sequence SEQ ID NO:2; selective nematolytic activity (protein, listed as Serratia marcescens)
chain: MQSTKKAIEITESSLAAATTGYDAVDDLLHYHERGNGIQINGKDSFSNEQAGLFITRENQTWNGYKVFGQPVKLTFSFPDYKFSSTNVAGDTGLSKFSAEQQQQAKLSLQSWADVANITFTEVAAGQKANITFGNYSQDRPGHYDYGTQAYAFLPNTIWQGQDLGGQTWYNVNQSNVKHPATEDYGRQTFTHEIGHALGLSHPGDYNAGEGNPTYNDVTYAEDTRQFSLMSYWSETNTGGDNGGHYAAAPLLDDIAAIQHLYGANLSTRTGDTVYGFNSNTGRDFLSTTSNSQKVIFAAWDAGGNDTFDFSGYTANQRINLNEKSFSDVGGLKGNVSIAAGVTIENAIGGSGNDVIVGNAANNVLKGGAGNDVLFGGGGADELWGGAGKDIFVFSAASDSAPGASDWIRDFQKGIDKIDLSFFNKEAQSSDFIHFVDHFSGTAGEALLSYNASSNVTDLSVNIGGHQAPDFLVKIVGQVDVATDFIVHSNGTPGAVSAGRDA
R. similis; 10 U/well, 10 wells, 20° C.
  Dead (nematodes counted): 298 and 300
R. similis; 10 U/well, 10 wells, 20° C., significant difference (p < 0.05) between treatments
  % mortality: 99% and 100%
R. similis; R. similis
  lysis / mortality of the nematode on contact: lyses the nematode
  time until cuticle and body wall are lysed and internal viscera expelled: ≤ 30 h
casein; 2-mercaptoethanol (0.5% v/v)
  proteolytic activity retained in the presence of additive: retains full activity
casein; SDS (1% w/v)
  proteolytic activity retained in the presence of additive: retains full activity
casein; Triton X-100 (1% w/v)
  proteolytic activity retained in the presence of additive: retains full activity
casein; Tween-20 (1% w/v)
  proteolytic activity retained in the presence of additive: retains full activity
casein; ethanol (5% v/v)
  proteolytic activity retained in the presence of additive: retains full activity
casein; polypeptide produced by S. marcescens NRRL B-23112
  Optimum pH: 10
[1]
  Isoelectric point: 6.1
A. suum; A. suum
  lysis / mortality of the nematode on contact: lyses the nematode
  time until cuticle and body wall are lysed and internal viscera expelled: ≤ 30 h
A. suum; 10 mM 2-mercaptoethanol
  12 hours Death: (+)
  12 hours Lysis: (+++)
  24 hours Death: (+)
  24 hours Lysis: (+++)
